Measured values: patent US20090172842

Target: T1, endogenous tobacco RUBISCO small subunit, P69249
T1 chain: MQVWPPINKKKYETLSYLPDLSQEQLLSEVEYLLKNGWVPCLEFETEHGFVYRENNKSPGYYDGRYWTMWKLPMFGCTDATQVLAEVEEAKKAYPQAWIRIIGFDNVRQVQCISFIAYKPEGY

B1: Griffithsia monilis RUBISCO large subunit with C-terminal 6-His tag, product of the chloroplast transgene cpGMNrbcL (pTCP104 tobacco) (protein)
chain: MANSVEERTRIKNERYESGVIPYAKMGYWDPNYAVKDTDILALFRVSPQPGVDPVEASAAVAGESSTATWTVVWTDLLTACDLYRAKAYKVESVPNTSDQYFAYISYDIDLFEEGSIANLTASIIGNVFGFKAVKALRLEDMRIPVAYLKTFQGPATGIVVERERMDKFGRPFLGATVKPKLGLSGKNYGRVVYEGLRGGLDFLKDDENINSQPFMRWKERFLYSIEAVNRSIAATGEVKGHYMNVTAATMEEMYERAEFAKQLGTVIIMIDLVIGYTAIQTMGIWARKNDMILHLHRAGNSTYSRQKIHGMNFRVICKWMRMAGVDHIHAGTVVGKLEGDPLMIRGFYNTLLLPYLEVNLPQGIFFQQDWASLRKVTPVASGGIHCGQMHQLLDYLGNDVVLQFGGGTIGHPDGIQAGATANRVALESMVIARNEGRDYVAEGPQILRDAAKTCGPLQTALDLWKDITFNYTSTDTADFVETPTANVHHHHHH
RUBISCO Activity (RuBP-dependent 14CO2 fixation), pTCP104-1 tobacco crude extract: 0 mU/mg
RUBISCO Activity (RuBP-dependent 14CO2 fixation), pTCP104-1 tobacco purified rubisco: 2.1 mU/mg
